The target of test [1] is Shp2 N-terminal SH2-containing domain (UniProt Q06124). Nature of the test: far-Western of β4 IP with GST-Shp2. The conditions noted are these: reference: wild-type β4.
Another test concerns the target Shp2 (UniProt Q06124). Nature of the test: co-IP, anti-β4 IP, Shp2 blot. The conditions noted are these: reference: wild-type β4; sites Y1257,Y1494.

From PMC2064708 come the findings set out here.

“β4 integrin (from UniProt P16144-2) β4-Y1440F”: the “binding against the reference” value in test [1] (sites Y1440) is recorded as “weaker”.

On to “β4 integrin (from UniProt P16144-2) double mutant Y1257F/Y1494F”, for which the “binding against the reference” value in the test with Shp2 is recorded as “weaker”.

Consider “β4 integrin (from UniProt P16144-2) β4-ΔShp2D (Y1257F, Y1494F)”, for which, in test [1] (sites Y1257,Y1494), the “binding against the reference” value is “weaker”.
